The text below walks through data of publication PMC10425842.

Test [1] has as its target UBR5^ΔSBB2 (UBR5 mutant with an SBB2 domain deletion) (human) (UniProt O95071). As to the kind of experiment: mass photometry.
The target is the same in test [2]. As to the kind of experiment: cryo-EM 2D classification.

The stoichiometry N is the number of molecules, sites or subunits per partner or assembly. As for “UBR5^ΔSBB2 (UBR5 mutant with an SBB2 domain deletion) (from UniProt O95071 1-2799) (enzyme)”, the stoichiometry N in test [1] and in test [2] was 2 throughout.
